The values that follow come from article PMC11877715, “NONO regulates m^5C modification and alternative splicing of PTEN mRNAs to drive gastric cancer progression” (Journal of Experimental & Clinical Cancer Research : CR, 2025).

The target in this assay is T1, purified HA-NSUN2 (human, UniProt Q08J23 1-767).
T1 construct: NSUN2, human, in p-GEX-4T-1; The plasmid is called GST-HA-NSUN2, the protein in the assay HA-NSUN2; also called GST-HA-NSUN2; HA-NSUN2 fusion protein; source: E. coli, purified (prepared 'as described previously')
As to the kind of experiment: pull-down; Called GST pull-down; about 100 µg GST-Flag-NONO and HA-NSUN2 incubated overnight with anti-Flag antibody at 4 °C, protein A/G magnetic beads 1 h at room temperature, low-pH elution, Western blot. The following applies: both partners purified. (In general: A western blot detects proteins with antibodies after separation by electrophoresis.)

T1 sequence (Q08J23 whole entry, the tested form may be a part): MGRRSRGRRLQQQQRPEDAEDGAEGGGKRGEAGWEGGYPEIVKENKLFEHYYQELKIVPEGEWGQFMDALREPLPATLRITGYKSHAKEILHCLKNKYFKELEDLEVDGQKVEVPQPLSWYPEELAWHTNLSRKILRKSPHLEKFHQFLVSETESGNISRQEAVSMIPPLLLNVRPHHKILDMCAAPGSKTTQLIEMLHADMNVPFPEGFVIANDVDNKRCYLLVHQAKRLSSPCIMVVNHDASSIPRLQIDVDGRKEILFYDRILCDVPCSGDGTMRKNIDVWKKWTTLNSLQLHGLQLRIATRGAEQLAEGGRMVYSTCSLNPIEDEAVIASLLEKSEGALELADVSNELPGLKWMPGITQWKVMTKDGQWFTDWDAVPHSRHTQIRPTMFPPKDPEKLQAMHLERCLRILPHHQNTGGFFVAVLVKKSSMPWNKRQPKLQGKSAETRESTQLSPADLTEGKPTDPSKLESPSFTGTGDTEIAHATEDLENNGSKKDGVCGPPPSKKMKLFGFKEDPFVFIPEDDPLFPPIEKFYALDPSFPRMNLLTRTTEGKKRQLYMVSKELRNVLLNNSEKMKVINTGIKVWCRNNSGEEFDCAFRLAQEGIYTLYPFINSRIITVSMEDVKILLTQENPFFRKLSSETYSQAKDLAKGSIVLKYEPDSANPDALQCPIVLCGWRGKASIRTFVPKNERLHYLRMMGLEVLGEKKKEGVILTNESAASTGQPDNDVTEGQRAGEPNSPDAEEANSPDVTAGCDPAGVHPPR

B1: GST-Flag-NONO (natural protein, human, UniProt Q15233 1-471, looked up)
chain: MQSNKTFNLEKQNHTPRKHHQHHHQQQHHQQQQQQPPPPPIPANGQQASSQNEGLTIDLKNFRKPGEKTFTQRSRLFVGNLPPDITEEEMRKLFEKYGKAGEVFIHKDKGFGFIRLETRTLAEIAKVELDNMPLRGKQLRVRFACHSASLTVRNLPQYVSNELLEEAFSVFGQVERAVVIVDDRGRPSGKGIVEFSGKPAARKALDRCSEGSFLLTTFPRPVTVEPMDQLDDEEGLPEKLVIKNQQFHKEREQPPRFAQPGSFEYEYAMRWKALIEMEKQQQDQVDRNIKEAREKLEMEMEAARHEHQVMLMRQDLMRRQEELRRMEELHNQEVQKRKQLELRQEEERRRREEEMRRQQEEMMRRQQEGFKGTFPDAREQEIRMGQMAMGGAMGINNRGAMPPAPVPAGTPAPPGPATMMPDGTLGLTPPTTERFGQAATMEGIGAIGGTPPAFNRAAPGAEFAPNKRRRY
notes: NONO, human, FL, in p-GEX-4T-1; also called GST-tagged Flag-NONO; FLAG-NONO-FL in p-GEX-4T-1; source: E. coli, purified (prepared 'as described previously')
B1: the binding result is “binds”.
